Experimental findings from paper PMC8401098, “The Uncommon Active Site of D-Amino Acid Transaminase from Haliscomenobacter hydrossis: Biochemical and Structural Insights into the New Enzyme” (Molecules, 2021) are described below.

For series [1], the target named is T1, Halhy (D-amino acid transaminase from Haliscomenobacter hydrossis) (Haliscomenobacter hydrossis, UniProt F4KWH0).
T1 construct: gene Halhy_2446; N-terminal His6-TEV tag cut off with TEV protease; E. coli Rosetta(DE3) pLysS; codon-optimised synthetic gene; homodimer (about 62 kDa by gel filtration)
The series can be described thus: X-ray crystal structure, […] Å. Format: binding. The note with it: covalent; Schiff base with K143; holo form, pH 4.8.

Substrate in series [2]: O=C(O)CCC(=O)C(=O)O
The series can be described thus: purified protein. Format: biochemical, Haliscomenobacter hydrossis. Conditions: D-alanine 40 mM, 50 mM K-phosphate pH 8, 30 µM PLP.

Substrate in series [3]: CC(C)CC(=O)C(=O)O
Put plainly: steady-state kinetics of overall transamination. Type of series: biochemical, Haliscomenobacter hydrossis. The note with it: D-alanine 40 mM, 50 mM K-phosphate pH 8, 30 µM PLP, 40 °C. An excerpt:
steady-state kinetics of overall transamination on Halhy (D-amino acid transaminase from Haliscomenobacter hydrossis)

Substrate in series [4]: CC(=O)C(=O)O
Put plainly: purified protein. Format: biochemical, Haliscomenobacter hydrossis. Conditions: D-glutamate 4 mM, 50 mM K-phosphate pH 8, 30 µM PLP, 40 °C.

Substrate in series [5]: N[C@H](CCC(=O)O)C(=O)O
The series can be described thus: purified protein. Type of series: biochemical, Haliscomenobacter hydrossis. Conditions: pyruvate 2.5 mM, 50 mM K-phosphate pH 8, 30 µM PLP, 40 °C.

Substrate in series [6]: C[C@@H](N)C(=O)O
Put plainly: purified protein. The note with it: α-ketoglutarate 5 mM, 50 mM K-phosphate pH 8, 30 µM PLP, 40 °C.

Substrate in series [7]: CC(C)C[C@@H](N)C(=O)O
Put plainly: steady-state kinetics of overall transamination (HPLC of 4-methyl-2-oxovalerate). Format: biochemical, Haliscomenobacter hydrossis. Conditions: α-ketoglutarate 5 mM, 50 mM K-phosphate pH 8, 30 µM PLP, 40 °C. From the text: steady-state kinetics of overall transamination (HPLC of 4-methyl-2-oxovalerate) on Halhy (D-amino acid transaminase from Haliscomenobacter hydrossis)

Usually Km stands for the concentration of substrate that gives half-maximal velocity. The kcat is the number of substrate molecules converted per active site and unit of time at saturation. For orientation: kcat/Km means the second-order rate constant that governs catalysis at low substrate concentration.

For `Cc1ncc(COP(=O)(O)O)c(C=O)c1O` [pyridoxal-5'-phosphate], the “X-ray crystal structure, 2.0 Å” value in series [1] is listed as “structure of WT Halhy in the holo form with a covalently bound PLP was determined”.

B1: Halhy (D-amino acid transaminase from Haliscomenobacter hydrossis) (Haliscomenobacter hydrossis DSM 1100; R179G) (protein)
chain: MIKYYNINGQQVPVENATLHVSDLSILRGYGIFDYFLAREGHPLFLDDYLNRFYRSAAELYLEIPFDKAELRRQIYALLQANEVREAGIRLVLTGGYSPDGYTPVNPNLLIMMYDLPASAWEFSAQGIKIITHPFQRELPEVKTINYSTGIRMLKTIKERGATDLIYVDQGEWIRESAGSNFFLVMPDNTIVTADEKILWGITRRQVIDAAREAGYAVEERRIHITELDQAREAFFTSTIKGVMAIGQIDDRVFGDGTIGKVTQELQDLFVGKVKAYLETC
notes: N-terminal His6-TEV tag cut off with TEV protease; E. coli Rosetta(DE3) pLysS; codon-optimised synthetic gene; homodimer (about 62 kDa by gel filtration)
For B1, in “purified protein [2]” (25 °C), the Km is 8.1 ± 0.8 mM, the catalytic constant (kcat) amounted to 8.6 ± 0.6 s⁻¹ and the kcat/Km was found to be 1100 M⁻¹ s⁻¹.

B2: Halhy (D-amino acid transaminase from Haliscomenobacter hydrossis) (Haliscomenobacter hydrossis DSM 1100) (protein)
chain: MIKYYNINGQQVPVENATLHVSDLSILRGYGIFDYFLAREGHPLFLDDYLNRFYRSAAELYLEIPFDKAELRRQIYALLQANEVREAGIRLVLTGGYSPDGYTPVNPNLLIMMYDLPASAWEFSAQGIKIITHPFQRELPEVKTINYSTGIRMLKTIKERGATDLIYVDQGEWIRESARSNFFLVMPDNTIVTADEKILWGITRRQVIDAAREAGYAVEERRIHITELDQAREAFFTSTIKGVMAIGQIDDRVFGDGTIGKVTQELQDLFVGKVKAYLETC
notes: as for B1
As to B2, the Km in series [3] was found to be 70 ± 6 mM; in the series “purified protein [4]”, 2.1 ± 0.1 mM; in the series “purified protein [2]” (40 °C), 2.3 ± 0.2 mM; in “purified protein [5]”, 10.3 ± 0.7 mM; in “purified protein [6]”, 23 ± 1 mM; in series [7], 83 ± 8 mM. The catalytic constant (kcat) came out at 4.2 ± 0.1 s⁻¹ in series [3]; 215 ± 6 s⁻¹ in “purified protein [4]”; 146 ± 4 s⁻¹ in “purified protein [2]” (40 °C); 215 ± 6 s⁻¹ in “purified protein [5]”; 146 ± 4 s⁻¹ in “purified protein [6]”; 10.5 ± 0.4 s⁻¹ in series [7]. For the same molecule, the catalytic efficiency (kcat/Km) in series [3] was found to be 60 M⁻¹ s⁻¹; in the series “purified protein [4]” it was 103000 ± 8000 M⁻¹ s⁻¹; in “purified protein [2]” (40 °C), 63000 ± 7000 M⁻¹ s⁻¹; in “purified protein [5]” it was 21000 ± 2000 M⁻¹ s⁻¹; in the series “purified protein [6]” it was 6300 M⁻¹ s⁻¹; in series [7], 130 M⁻¹ s⁻¹.
